From the PETadex activity labels (doi:10.1016/s0021-9258(17)37371-4)
Residue numbers refer to the chain shown, from its start.

B1: unnamed (protein)
chain: MRPPQCLLHTPSLASPLLLLLLWLLGGGVGAEGREDAELLVTVRGGRLRGIRLKTPGGPVSAFLGIPFAEPPMGPRRFLPPEPKQPWSGVVDATTFQSVCYQAVDTLYPGFEGTEMWNPNRELSEDCLYLNVWTPYPRPTSPTPVLVWIYGGGFYSGASSLDVYDGRFLVQAERTVLVSMNYRVGAFGFLALPGSREAPGNVGLLDQRLALQWVQENVAAFGGDPTSVTLFGESAGAASVGMHLLSPPSRGLFHRAVLQSGAPNGPWATVGMGEARRRATQLAHLVGCPPGGTGGNDTELVACLRTRPAQVLVNHAAHVLPQESVFRFSFVPVVDGDFLSDTPEALINAGDFHGLQVLVGVVKDEGSYFLVYGAPGFSKDNESLISRAEFLAGVRVGVPQVSDLAAEAVVLHYTDWLHPEDPARLREALSDVVGDHNVVCPVAQLAGRLAAQGARVYAYVFEHRASTLSWPLWMGVPHGYEIEFIFGIPLDPSRNYTAEEKIFAQRLMRYWANFARTGDPNEPRDPKAPQWPPYTAGAQQYVSLDLRPLEVRRGLRAQACAFWNRFLPKLLSATDTLDEAERQWKAEFHRWSSYMVHWKNQFDHYSKQDRCSDL
B2: unnamed (protein)
chain: B1 chain with A317W
B3: unnamed (protein)
chain: B1 chain with A103Y, A317W
B4: unnamed (protein)
chain: B1 chain with A103Y, A316E, A317W, Y368A
B5: unnamed (protein)
chain: B1 chain with A316E, A317W
B6: unnamed (protein)
chain: B1 chain with A103Y, A316E, A317W, Y372A
B7: unnamed (protein)
chain: B1 chain with A316E
B8: unnamed (protein)
chain: B1 chain with A103Y, D105N, A316E, A317W
B9: unnamed (protein)
chain: B1 chain with A103Y, A316E, A317W, F328A

substrate: Acetylcholine; details: pH 8; 27 °C

Point of comparison: B1, Km 300 µM. Against it:
- B2 — within 1.5-fold, 240 µM
- B3 — within 1.5-fold, 280 µM
- B4 — 3-fold lower, 100 µM
- B5 — 2.3-fold lower, 130 µM
- B6 — the same, 300 µM
- B7 — the same, 300 µM
- B8 — 2-fold higher, 600 µM
- B9 — within 1.5-fold, 310 µM

Point of comparison: B8, kcat 4170 s⁻¹. Against it:
- B1 — within 1.5-fold, 3330 s⁻¹
- B2 — 1.6-fold higher, 6670 s⁻¹
- B3 — 1.5-fold higher, 6330 s⁻¹
- B4 — 2.5-fold lower, 1670 s⁻¹
- B5 — 1.5-fold higher, 6330 s⁻¹
- B6 — the same, 4170 s⁻¹
- B7 — 1.7-fold higher, 7000 s⁻¹
- B9 — 2.1-fold lower, 2000 s⁻¹

Point of comparison: B2, kcat/Km 2.78e+07 M⁻¹ s⁻¹. Against it:
- B1 — 2.5-fold lower, 1.11e+07 M⁻¹ s⁻¹
- B3 — within 1.5-fold, 2.26e+07 M⁻¹ s⁻¹
- B4 — 1.7-fold lower, 1.67e+07 M⁻¹ s⁻¹
- B5 — 1.8-fold higher, 4.87e+07 M⁻¹ s⁻¹
- B6 — 2-fold lower, 1.39e+07 M⁻¹ s⁻¹
- B7 — within 1.5-fold, 2.33e+07 M⁻¹ s⁻¹
- B8 — 4-fold lower, 6.94e+06 M⁻¹ s⁻¹
- B9 — 4.3-fold lower, 6.45e+06 M⁻¹ s⁻¹
